Assay results as given in PMC5330840.

Biological target: Entamoeba histolytica ADP-forming acetyl-CoA synthetase, wild type (Entamoeba histolytica)
Assay: SEC

stoichiometry N: 2
Substance: Entamoeba histolytica ADP-forming acetyl-CoA synthetase, wild type (enzyme)
